From patent publication US9320770B2, “Blood vessel maturation, normalization or stabilization agent and wrinkle preventer/improver” (Shiseido Company, Ltd., priority 2008, dated 2016)

B1: Ang-1: Angiopoietin-1 (R&D System, 932-AN), positive control known to activate Tie-2 (protein, UniProt Q15389 16-498, looked up)
Angiopoietin-1: HIGCSNQRRSPENSGRRYNRIQHGQCAYTFILPEHDGNCRESTTDQYNTNALQRDAPHVEPDFSSQKLQHLEHVMENYTQWLQKLENYIVENMKSEMAQIQQNAVQNHTATMLEIGTSLLSQTAEQTRKLTDVETQVLNQTSRLEIQLLENSLSTYKLEKQLLQQTNEILKIHEKNSLLEHKILEMEGKHKEELDTLKEEKENLQGLVTRQTYIIQELEKQLNRATTNNSVLQKQQLELMDTVHNLVNLCTKEGVLLKGGKREEEKPFRDCADVYQAGFNKSGIYTIYINNMPEPKKVFCNMDVNGGGWTVIQHREDGSLDFQRGWKEYKMGFGNPSGEYWLGNEFIFAITSQRQYMLRIELMDWEGNRAYSQYDRFHIGNEKQNYRLYLKGHTGTAGKQSSLILHGADFSTKDADNDNCMCKCALMLTGGWWFDACGPSNLNGMFYTAGQNHGKLNGIKWHYFKGPSYSLRSTTMMIRPLDF

Assays:
Assay type in all cases: cell-based
[1] = test system: Normal human umbilical vein endothelial cells and normal human dermal fibroblasts; assay: Evaluation of angiogenesis inhibitory action (angiogenesis kit, lumen formation in the presence of VEGF-A)
Experimental: Evaluation of Angiogenesis Inhibitory Action
A test was conducted for confirming the angiogenesis inhibitory action of cinnamon bark hot water extract.
Normal human umbilical vein endothelial cells and normal human dermal fibroblasts were co-cultured at a constant ratio using an angiogenesis kit (Kurabo Industries) and prepared in the growth state of the initial stage of lumen formation. The cells were incubated (under conditions of 37° C. and 5% CO2) after adding medium containing a prescribed concentration of cinnamon bark hot water extract in the presence of 10 ng/ml of vascular endothelial cell growth factor A (VEGF-A, Kurabo Industries). […] The stained images obtained from each well were then photographed (FIG. 4), and the images were analyzed using the length and surface area of lumen formation as indicators to evaluate angiogenesis inhibitory action (FIGS. 5 and 6). Image analysis for the length of lumen formation and image analysis for surface area were respectively carried out using angiogenesis quantification software (Kurabo Industries). […] Moreover, angiogenesis inhibitory action in the presence of VGF-A was also evaluated for Ang-1, which is known to have an action that is responsible for vascular stabilization.

full-length murine TIE2 = biological target: T1, full-length murine TIE2 (Mus musculus, UniProt Q02858); assay: Tie-2 phosphorylation evaluation in Baf3 cells (BaF/TIE2), Western blotting; settings: extracts 100 ppm, Angiopoietin-1 0.5 ppm, 10 minutes, FIG. 1 and 2
T1 construct: Ba/F3 transduced with full-length murine TIE2(BaF/TIE2); expressed in transfected cells; host or cells: Ba/F3 (murine pro-B cell line)
T1 sequence (Q02858 23-1122): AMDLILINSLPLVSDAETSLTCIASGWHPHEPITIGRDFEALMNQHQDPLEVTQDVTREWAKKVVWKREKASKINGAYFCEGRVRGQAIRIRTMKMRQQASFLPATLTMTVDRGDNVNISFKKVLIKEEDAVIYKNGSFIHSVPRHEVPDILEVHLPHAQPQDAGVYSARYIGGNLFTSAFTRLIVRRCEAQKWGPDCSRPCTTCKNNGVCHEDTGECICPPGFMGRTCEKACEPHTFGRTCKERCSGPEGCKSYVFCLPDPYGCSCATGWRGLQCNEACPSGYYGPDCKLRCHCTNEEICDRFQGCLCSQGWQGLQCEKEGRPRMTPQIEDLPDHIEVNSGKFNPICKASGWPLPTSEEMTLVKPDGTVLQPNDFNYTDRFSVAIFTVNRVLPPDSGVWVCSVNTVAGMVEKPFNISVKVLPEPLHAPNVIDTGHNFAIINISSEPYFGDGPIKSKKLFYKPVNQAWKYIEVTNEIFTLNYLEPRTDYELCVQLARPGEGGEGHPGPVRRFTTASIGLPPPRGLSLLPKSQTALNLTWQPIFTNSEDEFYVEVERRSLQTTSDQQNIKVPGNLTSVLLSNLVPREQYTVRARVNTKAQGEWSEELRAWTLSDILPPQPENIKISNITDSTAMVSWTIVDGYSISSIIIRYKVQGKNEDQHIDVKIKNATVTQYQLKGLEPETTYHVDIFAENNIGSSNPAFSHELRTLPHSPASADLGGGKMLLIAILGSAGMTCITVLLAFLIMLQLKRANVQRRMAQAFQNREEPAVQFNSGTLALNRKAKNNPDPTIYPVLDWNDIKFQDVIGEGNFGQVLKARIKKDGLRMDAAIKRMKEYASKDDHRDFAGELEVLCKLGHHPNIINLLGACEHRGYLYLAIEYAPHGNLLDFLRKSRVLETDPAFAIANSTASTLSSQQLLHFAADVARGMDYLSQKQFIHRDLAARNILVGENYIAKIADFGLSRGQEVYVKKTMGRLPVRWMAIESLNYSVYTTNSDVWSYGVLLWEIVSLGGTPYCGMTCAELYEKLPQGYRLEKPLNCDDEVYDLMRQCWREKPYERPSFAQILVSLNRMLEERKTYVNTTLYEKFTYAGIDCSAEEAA
Experimental: Tie-2 Phosphorylation Evaluation Method
(§1) Baf3 cells, a murine pro-B cell line, Ba/F3 transduced with full-length murine TIE2(BaF/TIE2) were incubated in RPMI 1640 medium in the presence of IL-3 (Biosource, PMC0034) and 10% FCS. The cells were plated into a 6-well plate at 2×10^6 cells/1.5 mL/well and incubated overnight while omitting the FCS starting on the day before cell stimulation. DMSO solutions of the aforementioned hot water extract dry residues, Angiopoietin-1 (R&D System, 932-AN) as a positive control or DMSO as a negative control were added to the wells at a final concentration of 100 ppm, 0.5 ppm and 1000 ppm, respectively, followed by incubating for 10 minutes, cooling the cells on ice and washing with chilled PBS. The cells were then ultrasonically homogenized in RIPA buffer containing protease inhibitors (leupeptin, aprotinin, pepstatin, PMSF, Na3VO4). Sample buffer (0.2 M Tris-HCl (pH 6.8), 4% SDS, 20% glycerol, 5 mM EDTA, 0.01% BPB) was then added followed by carrying out SDS-PAGE (7.5% polyacrylamide gel, 12 wells, NPU-7.5L, Atto Corp.) under the conditions indicated below.
Gel: 7.5% acrylamide gel (NPU-7.5L, Atto Corp.)
Phoresis conditions: 40 mA (75 minutes, 2 gel sheets) […]
(§2) Next, Western blotting (20 V, 4° C., overnight) was carried out for transcription to a PVDF membrane. […] Protein bands were detected by chemiluminescence detection (ECL).

Tie-2 = biological target: T2, Tie-2 (Homo sapiens, UniProt Q02763); assay: Tie-2 phosphorylation evaluation in HUVEC; settings: evaluated in the same manner as Baf3 cells, FIG. 3
T2 construct: Tie-2 phosphorylation was similarly evaluated using normal human umbilical vein endothelial cells (HUVEC); endogenous in cells; host or cells: HUVEC (normal human umbilical vein endothelial cells)
T2 sequence (Q02763 23-1124): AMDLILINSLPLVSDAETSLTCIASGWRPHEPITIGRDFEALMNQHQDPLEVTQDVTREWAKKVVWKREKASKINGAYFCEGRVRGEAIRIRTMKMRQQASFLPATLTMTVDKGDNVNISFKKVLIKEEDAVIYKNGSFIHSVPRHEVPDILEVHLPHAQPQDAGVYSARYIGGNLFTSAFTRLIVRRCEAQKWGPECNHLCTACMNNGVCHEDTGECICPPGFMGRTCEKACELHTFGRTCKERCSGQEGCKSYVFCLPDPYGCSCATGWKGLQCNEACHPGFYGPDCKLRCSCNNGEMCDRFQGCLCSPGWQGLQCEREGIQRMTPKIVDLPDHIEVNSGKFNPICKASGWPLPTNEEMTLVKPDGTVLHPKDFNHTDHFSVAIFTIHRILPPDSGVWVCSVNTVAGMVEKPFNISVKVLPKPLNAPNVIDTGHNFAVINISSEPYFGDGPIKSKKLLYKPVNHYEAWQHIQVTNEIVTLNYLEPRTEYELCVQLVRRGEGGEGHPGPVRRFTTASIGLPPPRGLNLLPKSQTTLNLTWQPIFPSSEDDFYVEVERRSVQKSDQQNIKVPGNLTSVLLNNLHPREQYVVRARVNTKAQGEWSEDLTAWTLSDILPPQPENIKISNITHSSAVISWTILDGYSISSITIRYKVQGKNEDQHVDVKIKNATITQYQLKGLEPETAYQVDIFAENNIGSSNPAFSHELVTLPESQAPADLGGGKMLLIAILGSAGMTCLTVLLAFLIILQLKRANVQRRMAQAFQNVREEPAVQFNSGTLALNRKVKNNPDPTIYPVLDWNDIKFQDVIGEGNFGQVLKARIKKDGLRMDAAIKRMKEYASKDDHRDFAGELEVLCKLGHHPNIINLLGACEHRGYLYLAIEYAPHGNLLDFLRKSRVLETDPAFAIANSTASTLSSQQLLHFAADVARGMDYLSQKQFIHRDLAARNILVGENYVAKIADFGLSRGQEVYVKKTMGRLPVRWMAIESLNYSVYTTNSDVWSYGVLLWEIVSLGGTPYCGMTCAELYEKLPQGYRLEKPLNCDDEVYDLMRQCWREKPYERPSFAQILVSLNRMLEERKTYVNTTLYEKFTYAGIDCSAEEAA
Experimental: as §1, §2
2) Tie-2 phosphorylation was similarly evaluated using normal human umbilical vein endothelial cells (HUVEC). […]

Molecule	lumen formation (stained image) ([1]; cultured with VEGF-A 10 ng/ml, FIG. 4, cinnamon bark extract particularly at 300 ppm)	Tie-2 phosphorylation (full-length murine TIE2)	Tie-2 phosphorylation (Tie-2)	angiogenesis inhibitory action (length and surface area of lumen formation) ([1]; angiogenesis induced by VEGF-A 10 ng/ml, FIGS. 5 and 6, cinnamon bark extract 10 to 300 ppm)
Cc1ccc(C(=O)Nc2ccc(S(=O)(=O)O)c3cc(S(=O)(=O)O)cc(S(=O)(=O)O)c23)cc1NC(=O)c1cccc(NC(=O)Nc2cccc(C(=O)Nc3cc(C(=O)Nc4ccc(S(=O)(=O)O)c5cc(S(=O)(=O)O)cc(S(=O)(=O)O)c45)ccc3C)c2)c1 [Suramin, reference compound]	lumen formation was determined to be inhibited			
B1		phosphorylation of Tie-2	phosphorylation of Tie-2	did not have angiogenesis inhibitory action
